# Reference: article PMC9974302, “Bacterial division ring stabilizing ZapA versus destabilizing SlmA modulate FtsZ switching between biomolecular condensates and polymers” (Open Biology, 2023)
# B1: FtsZ (natural protein, E. coli, UniProt P0A9A6 1-383, looked up)
# chain: MFEPMELTNDAVIKVIGVGGGGGNAVEHMVRERIEGVEFFAVNTDAQALRKTAVGQTIQIGSGITKGLGAGANPEVGRNAADEDRDALRAALEGADMVFIAAGMGGGTGTGAAPVVAEVAKDLGILTVAVVTKPFNFEGKKRMAFAEQGITELSKHVDSLITIPNDKLLKVLGRGISLLDAFGAANDVLKGAVQGIAELITRPGLMNVDFADVRTVMSEMGYAMMGSGVASGEDRAEEAAEMAISSPLLEDIDLSGARGVLVNITAGFDLRLDEFETVGNTIRAFASDNATVVIGTSLDPDMNDELRVTVVATGIGMDKRPEITLVTNKQVQQPVMDRYQQHGMAPLTQEQKPVAKVVNDNAPQTAKEPDYLDIPAFLRKQAD
# modifications: Alexa Fluor 488 or Alexa Fluor 647 on amino groups, only in the tracer fraction (below 1 mole of dye per mole of protein)
# notes: Cell division GTPase FtsZ, E. coli; The methods name no species for the construct; Oligomers without GTP (GDP form), polymers with GTP; also called FtsZ-Alexa 647; source: purified as described in [6,22,25]
# What was measured:
# FtsZ = target: B1; experiment: fluorescence correlation spectroscopy; FtsZ polymers: 10 uM FtsZ, 2 mM GTP and enzymatic GTP regeneration system; 10 nM labelled tracer; solution buffer; conditions: both partners purified
# [1] = target: the molecule itself; experiment: fluorescence correlation spectroscopy; no GTP (FtsZ oligomers); solution buffer with 100 mM KCl; 10 nM ZapA-Alexa 488 or SBS-Alexa 488 as tracer; 5 uM ZapA, 5 uM SlmA, 1 uM SBS, 50 or 20 uM FtsZ
# [2] = target: the molecule itself; experiment: fluorescence polarisation; anisotropy with time after addition of GTP; 5 uM FtsZ with 50 nM FtsZ-Alexa 488 as tracer; solution buffer with 300 mM KCl; 27 C
binding result (FtsZ),Binder,stoichiometry N [1],binding result [2]
binds,"ZapA (natural protein, E. coli, UniProt P0ADS2 1-109, looked up, Alexa Fluor 488 on amino groups, only in the tracer fraction (below 1 mole of dye per mole of protein), Cell division protein ZapA, E. coli; Dimer-tetramer equilibrium that depends on salt; source: BL21(DE3) strain carrying plasmid pEJR029b, purified) MSAQPVDIQIFGRSLRVNCPPDQRDALNQAADDLNQRLQDLKERTRVTNTEQLVFIAALNISYELAQEKAKTRDYAASMEQRIRMLQQTIEQALLEQGRITEKTNQNFE",4,
,B1,,binds
